# Source: US20220380471A1 (US Dept. of Health and Human Services, published 2022)
# T1: monkey B7H3-His (monkey)
# T1 chain: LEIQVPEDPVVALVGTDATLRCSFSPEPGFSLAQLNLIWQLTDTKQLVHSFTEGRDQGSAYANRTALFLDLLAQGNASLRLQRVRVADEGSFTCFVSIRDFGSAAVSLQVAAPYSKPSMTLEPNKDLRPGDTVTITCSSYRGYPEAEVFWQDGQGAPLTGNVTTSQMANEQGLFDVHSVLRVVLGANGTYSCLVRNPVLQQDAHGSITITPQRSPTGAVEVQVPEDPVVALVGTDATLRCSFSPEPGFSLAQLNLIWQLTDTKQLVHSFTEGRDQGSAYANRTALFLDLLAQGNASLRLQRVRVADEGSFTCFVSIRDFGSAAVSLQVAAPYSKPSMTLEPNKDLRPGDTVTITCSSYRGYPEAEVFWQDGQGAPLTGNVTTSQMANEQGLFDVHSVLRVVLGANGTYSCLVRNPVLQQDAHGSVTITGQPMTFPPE
# T2: rat B7H3-His (rat, UniProt Q7TPB4 29-244, limits assumed)
# T2 construct: not shown: His tag
# T2 sequence (looked up): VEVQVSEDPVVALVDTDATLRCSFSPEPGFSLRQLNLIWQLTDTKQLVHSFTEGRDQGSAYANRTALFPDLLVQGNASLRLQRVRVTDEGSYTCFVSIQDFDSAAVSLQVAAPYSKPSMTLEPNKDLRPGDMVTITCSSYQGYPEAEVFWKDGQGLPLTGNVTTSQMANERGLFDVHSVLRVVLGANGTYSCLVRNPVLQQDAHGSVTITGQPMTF
# T3: B7H3 (CD276) on MC38-CD276+ cells
# T3 construct: whole, on cells; MC38-CD276KO cells served as the negative control; also called MC38-B7H3+
# T3 sequence (Q5ZPR3 1-534, species assumed, looked up): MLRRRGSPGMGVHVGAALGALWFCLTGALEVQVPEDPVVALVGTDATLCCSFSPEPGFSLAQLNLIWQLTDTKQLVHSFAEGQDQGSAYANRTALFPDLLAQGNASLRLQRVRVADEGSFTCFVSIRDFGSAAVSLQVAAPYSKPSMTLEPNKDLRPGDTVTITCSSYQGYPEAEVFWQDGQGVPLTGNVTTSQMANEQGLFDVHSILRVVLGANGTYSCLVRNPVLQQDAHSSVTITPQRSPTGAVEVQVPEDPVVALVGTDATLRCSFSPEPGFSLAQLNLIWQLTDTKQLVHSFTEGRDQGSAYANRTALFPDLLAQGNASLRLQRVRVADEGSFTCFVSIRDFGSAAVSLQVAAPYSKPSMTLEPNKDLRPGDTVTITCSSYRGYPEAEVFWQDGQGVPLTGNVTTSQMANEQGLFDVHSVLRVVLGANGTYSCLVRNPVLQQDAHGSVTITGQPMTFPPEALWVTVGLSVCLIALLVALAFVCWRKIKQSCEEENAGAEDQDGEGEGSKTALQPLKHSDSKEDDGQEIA
# T4: hB7H3-His (human, UniProt Q5ZPR3 29-461, limits assumed)
# T4 construct: not shown: His tag
# T4 sequence (looked up): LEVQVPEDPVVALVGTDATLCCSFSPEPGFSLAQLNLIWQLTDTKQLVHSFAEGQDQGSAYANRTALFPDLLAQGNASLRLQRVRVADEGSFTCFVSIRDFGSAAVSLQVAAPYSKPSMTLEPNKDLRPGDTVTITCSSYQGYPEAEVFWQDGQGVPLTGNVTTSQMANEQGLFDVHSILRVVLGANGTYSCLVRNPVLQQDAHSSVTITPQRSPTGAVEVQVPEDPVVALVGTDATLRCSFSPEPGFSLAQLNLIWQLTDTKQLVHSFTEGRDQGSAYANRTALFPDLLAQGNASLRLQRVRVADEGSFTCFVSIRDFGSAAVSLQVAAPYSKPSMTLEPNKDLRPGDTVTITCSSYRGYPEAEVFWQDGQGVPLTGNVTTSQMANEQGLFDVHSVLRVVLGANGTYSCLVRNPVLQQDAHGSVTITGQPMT
# T5: human B7H3 (human, UniProt Q5ZPR3 29-466, limits assumed)
# T5 construct: also called human B7H3 protein
# T5 sequence (looked up): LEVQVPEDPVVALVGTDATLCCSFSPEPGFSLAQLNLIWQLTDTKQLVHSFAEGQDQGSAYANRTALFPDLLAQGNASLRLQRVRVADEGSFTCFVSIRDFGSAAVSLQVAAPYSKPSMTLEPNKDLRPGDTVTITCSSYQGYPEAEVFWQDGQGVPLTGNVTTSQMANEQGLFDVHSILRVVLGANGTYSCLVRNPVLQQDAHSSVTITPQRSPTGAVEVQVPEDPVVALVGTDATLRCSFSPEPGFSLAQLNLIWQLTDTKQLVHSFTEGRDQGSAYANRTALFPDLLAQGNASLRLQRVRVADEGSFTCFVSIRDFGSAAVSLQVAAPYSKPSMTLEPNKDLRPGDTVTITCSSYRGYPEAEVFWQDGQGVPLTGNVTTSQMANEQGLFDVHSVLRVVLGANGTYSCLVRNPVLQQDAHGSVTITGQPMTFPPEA
# Experiments:
# [1] = molecular target: T1, monkey B7H3-His; experiment: ELISA, purified VHH
# In short: (§1)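 Camel VHH nanobodies were selected by phage panning against recombinant B7H3-Fc and then purified. An ELISA measured their binding to immobilised recombinant proteins, both B7H3 fusion proteins and proteins unrelated to B7H3. The values are the ELISA signal.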
# [2] = molecular target: T2, rat B7H3-His; experiment: ELISA, purified VHH
# In short: as §1
# [3] = molecular target: T3, B7H3 (CD276) on MC38-CD276+ cells; experiment: flow cytometry on MC38-CD276+ cells, VHH at 0.5 ug/ml
# [4] = molecular target: PD-L1; experiment: ELISA, purified VHH, cross-reaction
# Chain of PD-L1 (Q9NZQ7 whole entry): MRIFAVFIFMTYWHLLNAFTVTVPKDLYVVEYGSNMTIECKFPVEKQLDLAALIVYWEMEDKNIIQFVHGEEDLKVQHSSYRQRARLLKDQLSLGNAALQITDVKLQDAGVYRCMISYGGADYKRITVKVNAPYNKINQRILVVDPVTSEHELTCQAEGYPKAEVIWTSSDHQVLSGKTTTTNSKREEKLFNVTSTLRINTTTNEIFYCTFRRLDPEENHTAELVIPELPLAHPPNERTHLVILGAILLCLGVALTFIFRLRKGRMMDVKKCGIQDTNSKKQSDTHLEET
# [5] = molecular target: T3, B7H3 (CD276) on MC38-CD276+ cells; experiment: flow cytometry on MC38-CD276+ cells, VHH at 2 ug/ml
# [6] = molecular target: T4, hB7H3-His; experiment: ELISA; row B7H3-his; well 3 of 3
# In short: as §1
# [7] = molecular target: T4, hB7H3-His; experiment: ELISA; row B7H3-his; well 1 of 3
# In short: as §1
# [8] = molecular target: T6, Irrelevant antigen; experiment: ELISA; row Irrelevant antigen; well 1 of 3
# T6 construct: negative control
# In short: as §1
# [9] = molecular target: T1, monkey B7H3-His; experiment: ELISA; row Monkey; well 3 of 3
# In short: as §1
# [10] = molecular target: PD-L1; experiment: ELISA; row PDL1-Fc; well 3 of 3
# In short: as §1
# [11] = molecular target: HN3-Fc; experiment: ELISA; row HN3-Fc; well 3 of 3
# In short: as §1
# [12] = molecular target: T5, human B7H3; experiment: ELISA; row Human; well 1 of 3
# In short: as §1
# [13] = molecular target: HN3-Fc; experiment: ELISA; row HN3-Fc; well 2 of 3
# In short: as §1
Binder,ELISA signal [1],ELISA signal [2],Positive rates [3] [%],ELISA signal [4],Positive rates [5] [%],ELISA reading (name not given) [6],ELISA reading (name not given) [7],ELISA reading (name not given) [8],ELISA reading (name not given) [9],ELISA reading (name not given) [10],ELISA reading (name not given) [11],ELISA reading (name not given) [12],ELISA reading (name not given) [13]
"RWG8 (VHH, Camel VHH; tag not described; also called camel antibody RWG8) VHH: DVQLVESGGGLVQPGGSLRLSCAASGFTFSRYWMGWFRQAPGKGVEWVSTINSGGGSTYYADSVKGRFTISRDNAKNTLYLQLNNLKTEDTAMYYCAKEQWRTGSRGQGTQVTVSS",0.117,0.0696,0.1,0.0715,0.31,0.0636,0.0693,0.104,0.195,0.0999,0.0535,0.136,0.0514
"RWC4 (VHH, Camel VHH; tag not described; also called camel antibody RWC4) VHH: EVQLVESGGGSVQAGGSLRLSCVASEDSTSAMCMGWFRQAPGKEREGVACINPTGEVTWYGDSVKGRFTISRDTVKKIVYLQMNSLKPEDTAMYYCAARVTYGGDWSTDTDYEYWGQGTQVTVSS",0.288,–,14.4,0.043,84.7,0.0811,0.114,0.0845,1.04,0.0613,0.0467,0.976,0.046

# Next, values leading:
ELISA signal [1],ELISA signal [2],Positive rates [3] [%],ELISA signal [4],Positive rates [5] [%],ELISA reading (name not given) [6],ELISA reading (name not given) [7],ELISA reading (name not given) [8],ELISA reading (name not given) [9],ELISA reading (name not given) [10],ELISA reading (name not given) [11],ELISA reading (name not given) [12],ELISA reading (name not given) [13],Binder
1.81,1.5,1.25,0.0614,23.4,–,–,–,–,–,–,–,–,"RWG4 (VHH, Camel VHH; tag not described; also called camel antibody RWG4) VHH: QVQLVQSGGGLVQPGGSLRLSCAASGFTFSVYWFYWVRQAPRQGLEWVSTIASNGSTYYSDSVKGRFTISRDNAKNTVYLQMNSLKPEDTAVYYCVSDPDYYSDYERAYKFWAQGTQVTVSS"
0.164,0.0574,0.23,0.0454,0.18,0.0946,0.0603,0.08,0.178,0.0624,0.048,0.181,0.0616,"RWB12 (VHH, Camel VHH; tag not described; also called camel antibody RWB12) VHH: QVQLVESGGGSVQVGGSLRLSCAASGFTYNSYSVGWFRQAPGKEREGVAAINSGGSSTYYAASVKGRFTISRDNAKNTVYLQMNSLKPEDTAMYYCAARSPSPLTFQTRTLREDSYNYWGQGTQVTVSS"
